Laboratory results reported in patent publication US5866538A, “Insulin preparations containing NaCl” (Novo Nordisk A/S, priority 1996, dated 1999).

Columns and labels:
[1] = Stability tests of Asp^B28 human insulin preparations in Penfill cartridges, varying NaCl (Example III); format: physicochemical; settings: phosphate 13.5 mM, pH 7.40
Description: 369.4 mg Asp^B28 human insulin was dissolved in water by adding 1.6 ml 0.2N HCl and 49 μl zinc chloride solution (40 mg Zn/ml). 40 g of a solution containing 40 mg/g glycerol, 3.75 mg/g phenol and 4.30 mg/g m-cresol was added to the solution while mixing. 10 g of a solution containing 24.0 mg/g disodium phosphate dihydrate and 11 μl/g 2N sodium hydroxide was added while mixing. Finally varying amounts (0 g to 4.38 g) of a solution containing 40 mg/g sodium chloride were added while mixing up to a sodium chloride concentration mentioned in Table 4. pH was adjusted to 7.40±0.05 and water added up to 100 ml. The Asp^B28 Human insulin preparations were introduced into Penfill® cartridges and subjected to stability tests at 25° C. and 37° C.

[2] = Stability tests of Asp^B28 human insulin preparations in Penfill cartridges, varying phosphate and NaCl (Example IV); format: physicochemical; settings: 19.6 μg Zn/100 U insulin, pH 7.4
Description: 375.7 mg Asp^B28 human insulin was dissolved in water by adding 1.6 ml 0.2N HCl and 49 μl zinc chloride solution (40 mg Zn/ml). 20 g of a solution containing 80 mg/g glycerol, 7.50 mg/g phenol and 8.60 mg/g m-cresol was added to the solution while mixing. Varying amounts (3.71 g to 6.71 g) of a solution containing 24.0 mg/g disodium phosphate dihydrate and 11 μl/g 2N sodium hydroxide was added while mixing, finally varying amounts (0 g to 3.65 g) of a solution containing 40 mg/g sodium chloride were added while mixing so as to obtain a sodium chloride concentration mentioned in table 6. pH was adjusted to pH 7.40±0.05 and water added up to 100 ml. The Asp^B28 Human insulin preparations were introduced into Penfill® cartridges and subjected to stability tests at 25° C. and 37° C. The stability data at the two different temperatures and three different phosphate concentrations and at 19.6 μg Zn/100 U insulin and pH=7.4 are summarized in Tables 4, 5 and 6.

[3] = 6 weeks at 37° C., NaCl added 5 mM, total Cl^- 8.5 mM
[4] = 6 weeks at 37° C., NaCl added 12.5 mM, total Cl^- 16.3 mM
[5] = 6 weeks at 37° C., NaCl added 20 mM, total Cl^- 23.8 mM
[6] = 6 weeks at 37° C., NaCl added 25 mM, total Cl^- 28.8 mM
[7] = 6 weeks at 37° C., NaCl added 30 mM, total Cl^- 33.8 mM
[8] = 12 weeks at 25° C., NaCl added 0 mM, total Cl^- 3.8 mM
[9] = 12 weeks at 25° C., NaCl added 5 mM, total Cl^- 8.5 mM
[10] = 12 weeks at 25° C., NaCl added 12.5 mM, total Cl^- 16.3 mM
[11] = 12 weeks at 25° C., NaCl added 20 mM, total Cl^- 23.8 mM
[12] = 12 weeks at 25° C., NaCl added 25 mM, total Cl^- 28.8 mM
[13] = 12 weeks at 25° C., NaCl added 30 mM, total Cl^- 33.8 mM
[14] = 6 weeks at 37° C., NaCl added 0 mM, total Cl^- 3.8 mM, phosphate 5 mM
[15] = 6 weeks at 37° C., NaCl added 0 mM, total Cl^- 3.8 mM, phosphate 7 mM
[16] = 6 weeks at 37° C., NaCl added 0 mM, total Cl^- 3.8 mM, phosphate 9 mM
[17] = 6 weeks at 37° C., NaCl added 5 mM, total Cl^- 8.8 mM, phosphate 5 mM
[18] = 6 weeks at 37° C., NaCl added 5 mM, total Cl^- 8.8 mM, phosphate 7 mM
[19] = 6 weeks at 37° C., NaCl added 5 mM, total Cl^- 8.8 mM, phosphate 9 mM
[20] = 6 weeks at 37° C., NaCl added 10 mM, total Cl^- 13.8 mM, phosphate 5 mM
[21] = 6 weeks at 37° C., NaCl added 10 mM, total Cl^- 13.8 mM, phosphate 7 mM
[22] = 6 weeks at 37° C., NaCl added 10 mM, total Cl^- 13.8 mM, phosphate 9 mM
[23] = 6 weeks at 37° C., NaCl added 15 mM, total Cl^- 18.8 mM, phosphate 5 mM
[24] = 6 weeks at 37° C., NaCl added 15 mM, total Cl^- 18.8 mM, phosphate 7 mM
[25] = 6 weeks at 37° C., NaCl added 15 mM, total Cl^- 18.8 mM, phosphate 9 mM
[26] = 6 weeks at 37° C., NaCl added 20 mM, total Cl^- 23.8 mM, phosphate 5 mM
[27] = 6 weeks at 37° C., NaCl added 20 mM, total Cl^- 23.8 mM, phosphate 7 mM
[28] = 6 weeks at 37° C., NaCl added 20 mM, total Cl^- 23.8 mM, phosphate 9 mM
[29] = 6 weeks at 37° C., NaCl added 25 mM, total Cl^- 28.8 mM, phosphate 5 mM
[30] = 6 weeks at 37° C., NaCl added 25 mM, total Cl^- 28.8 mM, phosphate 7 mM
[31] = 6 weeks at 37° C., NaCl added 25 mM, total Cl^- 28.8 mM, phosphate 9 mM
[32] = 12 weeks at 25° C., NaCl added 0 mM, total Cl^- 3.8 mM, phosphate 5 mM
[33] = 12 weeks at 25° C., NaCl added 0 mM, total Cl^- 3.8 mM, phosphate 7 mM
[34] = 12 weeks at 25° C., NaCl added 5 mM, total Cl^- 8.8 mM, phosphate 5 mM
[35] = 12 weeks at 25° C., NaCl added 5 mM, total Cl^- 8.8 mM, phosphate 7 mM
[36] = 12 weeks at 25° C., NaCl added 5 mM, total Cl^- 8.8 mM, phosphate 9 mM
[37] = 12 weeks at 25° C., NaCl added 10 mM, total Cl^- 13.8 mM, phosphate 5 mM
[38] = 12 weeks at 25° C., NaCl added 10 mM, total Cl^- 13.8 mM, phosphate 7 mM
[39] = 12 weeks at 25° C., NaCl added 10 mM, total Cl^- 13.8 mM, phosphate 9 mM
[40] = 12 weeks at 25° C., NaCl added 15 mM, total Cl^- 18.8 mM, phosphate 5 mM
[41] = 12 weeks at 25° C., NaCl added 15 mM, total Cl^- 18.8 mM, phosphate 7 mM
[42] = 12 weeks at 25° C., NaCl added 15 mM, total Cl^- 18.8 mM, phosphate 9 mM
[43] = 12 weeks at 25° C., NaCl added 20 mM, total Cl^- 23.8 mM, phosphate 5 mM
[44] = 12 weeks at 25° C., NaCl added 20 mM, total Cl^- 23.8 mM, phosphate 7 mM
[45] = 12 weeks at 25° C., NaCl added 20 mM, total Cl^- 23.8 mM, phosphate 9 mM
[46] = 12 weeks at 25° C., NaCl added 25 mM, total Cl^- 28.8 mM, phosphate 5 mM
[47] = 12 weeks at 25° C., NaCl added 25 mM, total Cl^- 28.8 mM, phosphate 7 mM
[48] = 12 weeks at 25° C., NaCl added 25 mM, total Cl^- 28.8 mM, phosphate 9 mM

Substance: Asp^B28 human insulin
- Asp^B28 Des-amido insulins formed [1, 3]: 4.1%
- Di- & polymers formed [1, 3]: 0.99%
- Asp^B28 Des-amido insulins formed [1, 4]: 3.6%
- Di- & polymers formed [1, 4]: 0.92%
- Asp^B28 Des-amido insulins formed [1, 5]: 3.0%
- Di- & polymers formed [1, 5]: 0.87%
- Asp^B28 Des-amido insulins formed [1, 6]: 3.0%
- Di- & polymers formed [1, 6]: 0.82%
- Asp^B28 Des-amido insulins formed [1, 7]: 2.8%
- Di- & polymers formed [1, 7]: 0.80%
- Asp^B28 Des-amido insulins formed [1, 8]: 2.7%
- Di- & polymers formed [1, 8]: 0.36%
- Asp^B28 Des-amido insulins formed [1, 9]: 2.3%
- Di- & polymers formed [1, 9]: 0.32%
- Asp^B28 Des-amido insulins formed [1, 10]: 1.8%
- Di- & polymers formed [1, 10]: 0.39%
- Asp^B28 Des-amido insulins formed [1, 11]: 1.7%
- Di- & polymers formed [1, 11]: 0.39%
- Asp^B28 Des-amido insulins formed [1, 12]: 1.8%
- Di- & polymers formed [1, 12]: 0.38%
- Asp^B28 Des-amido insulins formed [1, 13]: 1.7%
- Di- & polymers formed [1, 13]: 0.38%
- Asp^B28 Des-amido insulins formed [2, 14]: 4.7%
- Di- & polymers formed [2, 14]: 1.4%
- Asp^B28 Des-amido insulins formed [2, 15]: 4.3%
- Di- & polymers formed [2, 15]: 1.2%
- Asp^B28 Des-amido insulins formed [2, 16]: 4.9%
- Di- & polymers formed [2, 16]: 1.2%
- Asp^B28 Des-amido insulins formed [2, 17]: 3.7%
- Di- & polymers formed [2, 17]: 1.3%
- Asp^B28 Des-amido insulins formed [2, 18]: 3.6%
- Di- & polymers formed [2, 18]: 1.2%
- Asp^B28 Des-amido insulins formed [2, 19]: 4.0%
- Di- & polymers formed [2, 19]: 1.1%
- Asp^B28 Des-amido insulins formed [2, 20]: 3.4%
- Di- & polymers formed [2, 20]: 1.2%
- Asp^B28 Des-amido insulins formed [2, 21]: 3.1%
- Di- & polymers formed [2, 21]: 1.1%
- Asp^B28 Des-amido insulins formed [2, 22]: 3.7%
- Di- & polymers formed [2, 22]: 1.0%
- Asp^B28 Des-amido insulins formed [2, 23]: 3.1%
- Di- & polymers formed [2, 23]: 1.1%
- Asp^B28 Des-amido insulins formed [2, 24]: 3.1%
- Di- & polymers formed [2, 24]: 1.0%
- Asp^B28 Des-amido insulins formed [2, 25]: 3.5%
- Di- & polymers formed [2, 25]: 1.0%
- Asp^B28 Des-amido insulins formed [2, 26]: 2.7%
- Di- & polymers formed [2, 26]: 1.1%
- Asp^B28 Des-amido insulins formed [2, 27]: 2.9%
- Di- & polymers formed [2, 27]: 1.0%
- Asp^B28 Des-amido insulins formed [2, 28]: 3.5%
- Di- & polymers formed [2, 28]: 1.0%
- Asp^B28 Des-amido insulins formed [2, 29]: 3.0%
- Di- & polymers formed [2, 29]: 0.9%
- Asp^B28 Des-amido insulins formed [2, 30]: 2.8%
- Di- & polymers formed [2, 30]: 1.1%
- Asp^B28 Des-amido insulins formed [2, 31]: 3.1%
- Di- & polymers formed [2, 31]: 0.9%
- Asp^B28 Des-amido insulins formed [2, 32]: 2.2%
- Di- & polymers formed [2, 32]: 0.5%
- Asp^B28 Des-amido insulins formed [2, 33]: 2.0%
- Di- & polymers formed [2, 33]: 0.5%
- Di- & polymers formed ([2]; 12 weeks at 25° C., NaCl added 0 mM, total Cl^- 3.8 mM, phosphate 9 mM): 0.4%
- Asp^B28 Des-amido insulins formed [2, 34]: 1.7%
- Di- & polymers formed [2, 34]: 0.4%
- Asp^B28 Des-amido insulins formed [2, 35]: 1.7%
- Di- & polymers formed [2, 35]: 0.4%
- Asp^B28 Des-amido insulins formed [2, 36]: 1.8%
- Di- & polymers formed [2, 36]: 0.4%
- Asp^B28 Des-amido insulins formed [2, 37]: 1.5%
- Di- & polymers formed [2, 37]: 0.4%
- Asp^B28 Des-amido insulins formed [2, 38]: 1.4%
- Di- & polymers formed [2, 38]: 0.4%
- Asp^B28 Des-amido insulins formed [2, 39]: 1.5%
- Di- & polymers formed [2, 39]: 0.4%
- Asp^B28 Des-amido insulins formed [2, 40]: 1.4%
- Di- & polymers formed [2, 40]: 0.4%
- Asp^B28 Des-amido insulins formed [2, 41]: 1.5%
- Di- & polymers formed [2, 41]: 0.4%
- Asp^B28 Des-amido insulins formed [2, 42]: 1.5%
- Di- & polymers formed [2, 42]: 0.4%
- Asp^B28 Des-amido insulins formed [2, 43]: 1.3%
- Di- & polymers formed [2, 43]: 0.4%
- Asp^B28 Des-amido insulins formed [2, 44]: 1.4%
- Di- & polymers formed [2, 44]: 0.4%
- Asp^B28 Des-amido insulins formed [2, 45]: 1.6%
- Di- & polymers formed [2, 45]: 0.4%
- Asp^B28 Des-amido insulins formed [2, 46]: 1.3%
- Di- & polymers formed [2, 46]: 0.4%
- Asp^B28 Des-amido insulins formed [2, 47]: 1.3%
- Di- & polymers formed [2, 47]: 0.4%
- Asp^B28 Des-amido insulins formed [2, 48]: 1.4%
- Di- & polymers formed [2, 48]: 0.4%
